Assay results taken from the RNAGym collection of RNA variant scans (doi:10.1073/pnas.2313332121).

B1: TPR t1 (parent)
chain: GACCAAUCUGCCCUCAGAGCUCGAGAACAUCUUCGGAUGCAGAGGAGGCAGGCUUCGGUGGCGCGAUAGCGCCAACGUCCUCAACCUCCAAUGCAUCCCACCACAUGAUGAUGCCUGAAGAGCCUUGGUUUUUUG

Variants of: B1
Test: polymerase ribozyme fitness, log enrichment relative to wild type (log ratio); higher = more active; in vitro selection for triplet polymerase activity
Outline: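 A single round of triplicate in vitro selection, including frozen incubation at −7 °C, was applied to PCR-built, transcribed mutant libraries of each subunit of a heterodimeric triplet polymerase ribozyme. Illumina sequencing of input and output libraries retained genotypes with ≥10 input reads and ≥1 read per output. Fitness is the base-2 logarithm of genotype enrichment divided by wild-type enrichment, from inverse-variance-weighted replicate averages.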

Variant	polymerase ribozyme fitness (log ratio)
GACCAAUCUGCCCUCAGAGCUCGGGAACAUCUUCGGAUGCAGAGGAGGCAGGCUUCGGUGGCGCGAUAGCGCCAACGUCCUCAACCUCCGAUGCAUCCCACCACAUGAUGAUGCCUGAAGAGCCUUGGUUUUUUG [A24G A90G]	-1.65
GACCAAUCUGCCCUCAGAGCUCGGGAACUUCUUCGGAUGCAGAGAACGCAGGCUUCGGUGGCGCGAUAGCGCCAACCUCCUCAACCUCCAAUGCAUCCCACCACAUGAUGAUGCCUGAAGAGCCUUGGAUUUUUG [A24G A29U G45A G47C G77C U129A]	-5.43
GACCAAUCUGCCCUCAGAGCUCUAGAACAUCUUCGGAUGCAGAGGAGGCAGGCUUCGGUGUCGCGAUAGCGCCAACGUCCUCAACAUCCAAUGCAUCCCUCCACAUGAUGAUGUCUUAAGAGCCUUGGUUUUUUG [G23U G61U C86A A100U C114U G117U]	-7.47
GACCAAUCUGCCCUCAGAGCUCGGGAACAUUUUCGGAUGCAGAGGAGGCAGGCUUCGGUCGCGCGAUAGCGCCAACGUCCUCAACCUCCAAUGCAGCCCACCACAAGAUGAUGCCUGAACAGCCUUGGUUUUUUG [A24G C31U G60C U96G U106A G120C]	-4
GACCAAUCUGCCCUCAGAGCUCUAGAACAUCUUCGGAUGCAGAGGAGGCAGGCUUCGGUGGCGCGAUAGCGCCAACGUCCUCAACCUCCAAUGCAUCCCACCACAUGAUGAUGCCUGAAGAGACUUGGUUUUUUG [G23U C123A]	-5.92
GACCAAUCUGCCCUCAGAGCUCGCGAACAUCUUCGGAUGCAGAGGAGGCAGGCUUCGGUGGCGCGAUAGCGCCAACGUCCUCAACCUCCAUUGCAUCCCACCACAUGAUGAUGCCUUAAGAGGCUUGGUUUUUUG [A24C A91U G117U C123G]	-7.92
GACCAAUCUGCCCUCAGAGCUCGGGAACAUCUUCGGAUGCAGAGGAGGCAGGCUUCGGUGGCGCGAUAGCGCCAACGUCCUCAACCUCCAAUGCAUCCCACCACAUGAUGAUGCCUGAAGAGCCUUGGUUUUUUG [A24G]	-1.19
GACCAAUCUGCCCUCAGAGCUCGCGAACAUCUUCGGAUGCAGAGGAGGCAGGCUUCGGUGGCGCGAUAGCGCCAACGUCCUCAACCUCCAAUGCAUCCCACCACAUGAUGAUGCCUGAAGAGCCUUGGUUUUUUG [A24C]	-6.63
GACCAAUCUGCCCUCAGAGCUCUAGAACAUCUGCGGAUGCAGAGGAGGGAGGGUUCGGGGGCGCGAUAGCACCAACGACCUCAUCCUCCAAUGGAUCCCUCCACAUGAUGAUGCCUGAAGAGCCUUGGUUUUUUG [G23U U33G C49G C53G U59G G71A U78A A84U C94G A100U]	-8.02
GACCAAUCUGCCCUCAGAGCUCUAGAACAUCUUCGGAUGCAGAGGAGGCAGGCUUCGGUGGCGCGAUAGCCCCAACGUCCUCAACCUCCAAUGUAUCCCACCACAUGAUGAUGCUUGAAGAGCCUUGGUUUUUUG [G23U G71C C94U C115U]	-6.24
GACCAAUCUGCCCUCAGAGCUCUAGAACAUCUUCAGAUGCAGAGGUUGCAGGCUUCGGUGGCGCGAUAGCACCAACGUCCUCAACCUCCAAUGCAUCCCACCACAUGAUGAUGCCUCAAGAGCCUUGGUAUUUUG [G23U G35A A46U G47U G71A G117C U130A]	-6.34
GACCAAUCUGCCCUCAGAGCUCGGGAACAUCUUCGGAUGCAGAGGCGGCAGGCUUCGGUGGCGCGAUAGCGCCAACGUCCUCAACCUCCAAUGCAUCCCACCACAUGAUGCUGCCUGAAGAGCCUUGGUGUUUUG [A24G A46C A111C U130G]	-3.43
GACCAAUCUGCCCUCAGAGCUCGGGAACAUCUUCGGAUGCAGAGGAGGCAGGCUUUGGUGGCGCGAUAGCGCCAACGUCCUCAACCUCCAAUGCAUCCCACCACAUGAUGAUGCCUGAAGAGCCGUGGUUUUUUG [A24G C56U U125G]	-2.02
GACCAAUCUGCCCUCAGAGCUCGGGAACUUCUUCGGAUGCAGAGGAAGCAGGCUUCGGUGGCGCGAUAGCGCCGACGUCCUCAACCACCAAUGCAUCCCACCACAUGAGGAUGCCUGAAGAGCCUUGGUUUUUUG [A24G A29U G47A A74G U87A U109G]	-6.31
GACCAAUCUGCCCUCAGAGCUCGCGAACAUCUUCGGAUGCAGAGGAGGCAGGCUUCGGUGGCGCGAUAGCGCCAACGUCCUCAACCUCCAAUGCAUCCCAGCACAUGAUGAGGCCUGAAGAGCCUUGGUUUUUUG [A24C C101G U112G]	-6.34
GACCAAUCUGCCCUCAGAGCUCGGGAACGUCUUCGGAUGCAGAGGAGGCAGGCUUAGGUGGCGCGAUAGCGCCAACGUCCUCAACCGCCAAUGCAUCCCACCACAUGAUAAUGCCUGAAGAGCCUUGGUUUUAUG [A24G A29G C56A U87G G110A U133A]	-3.1
GACCAAUCUGCCCUCAGAGCUCGCGAACAUCUUCGGAGGCAGAGGAGGCAGGCUUCGGUGGCGCGAUAGCGCCAACGUCCUCAACCUCUAAUGCAUCCCACCACAUGAUGAUUCCUGAAGAGCCUUGGUUUUUUG [A24C U38G C89U G113U]	-6.49
GACCAAUCUGCCCUCAGAGCUCUAGAACAUCUUCGGAUGCAGAGGAGGCAGGCUUCGGUGGCGCGAUAUCGCCAACGUCCUCAACCUCCAAUGCAUCCCACCACAUGAUGAUGCCUGAAGAGCCUUGGUUUUUUG [G23U G69U]	-5.44
GACCAAUCUGCCCUCAGAGCUCGGGAAGAUCUUCGGAUGCAGAGGAGUCAGGCUUCGGUGGCGUGAUAGCGCCAACGUCCUCAACCUCCAAUGCAUCCCACCACAUGAUGAUGCCUGAAGAGCCUUGGUUUUUUG [A24G C28G G48U C64U]	-6.05
GACCAAUCUGCCCUCAGAGCUCGGGAACAUCUUCGGAUGCAGAGGAGGCAGGCUUCGGUGGAGCGAUAGCGCCAACGUCCUCAACCUCGAAUGCAUCCCACCACAUGAUGAUCCAUGCAGAGCCUUGGUUUUUUG [A24G C62A C89G G113C C115A A118C]	-6.92
GACCAAUCUGCCCUCAGAGCUCGCGAACAUCUUCGGAUGCAGAGGAGGCAGGCUUCGGUGGCGCGAUAGCGCCAACGUCCUCAACCUCCAAUGCAUCCCACUACAUGAUGAUGCCUGAAGAGCCUUGGUUUUUUG [A24C C102U]	-6.73

Variant	polymerase ribozyme fitness (log ratio)
GACCAAUCUGCCCUCAGAGCUCUAGAACAUCUUCGGAUGCAGAGGAGUCAGGCUUCGGUGGAGAGAUAGCGCCAACGUCCUCAACUUCCAAUGCAUCCAACCACAUGAUGAUGCCUUAAGAGCCUUGGUUUUUUG [G23U G48U C62A C64A C86U C99A G117U]	-7.32
GACCAAUCUGCCCUCAGAGCUCGGGAACAUCUUCGGAUGCAGAGGAGGCAGGCUUAGGUUGCGCGAUAGCGCCAACGUCCUCCACCUCCAAUGCAUCCCACCACAUGAUGAUGCCUGAAGAGCCUUGGUUUUAUG [A24G C56A G60U A83C U133A]	-2.54
GACCAAUCUGCCCUCAGAGCUCGGGAACAUCUUCGGUUGCAGAGGAGGCAGGCUUCGGUGGCGCGAUAGCGCCAACGUCCUCAACCUCCAAUGCACCCCACCACAUGAUUAUGCCUGAAGAGCCUUGGUUUUUUG [A24G A37U U96C G110U]	-3.88
GACCAAUCUGCCCUCAGAGCUCGCGAACAUCUUCGGAUGCAGAGGAGGCAGGCUUCGGUGGCGCGAUAGCGCCAACGUCCUCAACUUCCAAUGCAUCCCACCACAUGAUAAUGCCUGAAGAGCCUUGGUUUUUUG [A24C C86U G110A]	-5.7
GACCAAUCUGCCCUCAGAGCUCGCGAACAUCUUCGGAUGCAGAGGAGGCAGGCUUCGGUGGCGCGAUAGCGCGAACGUCCUCUACCUCCAAUGCAUCCCACCACAUGAUGAUGGCUGAAGAGCCUUGGUUUUUUG [A24C C73G A83U C114G]	-6.1
GACCAAUCUGCCCUCAGAGCUCGGGAACAUCUUCGGAUGCAGAGGAGGCCGGCUUCGGUGGCUCGAUAGCGCCAACGUCCUCAACCUCCAAUGCAUCCCACCACAUGAUGAUGCCUGUAGAACCUUGGUUUUUUG [A24G A50C G63U A118U G122A]	-7.26
GACCAAUCUGCCCUCAGAGCUCGCGGACAUCUUCGGAUGCAGAGGAGGCAGGCUUCGGUGGCGCGAUAGCGCCAACGUCCUCAACCUCCAAUGCAUCCCACCACAUGAUGAUGCCUGAAGAGCCUUGGUUUUUUG [A24C A26G]	-4.53
GACCAAUCUGCCCUCAGAGCUCGGGAACAUCUUCGGAUGCAGAGGAGGCAGGCUUCGGUGGCGCGAUAGCGCCAUCGUCCUCAACCUCCAAUGCAUCCCACCACAUGAUGAUGCCUGAAGAGCCUUGGUUUUUUG [A24G A75U]	-2.53
GACCAAUCUGCCCUCAGAGCUCGCGAACAUCUUCGGAUGCAGAGGAGCCAGGCUUCGGUGGCGCGAUAUCGCCAACGUCCUCAACCUCCAAUGCAUCCCACCACAUGAUGAUGCCUGAAGAGCCUUGGUUUUUUG [A24C G48C G69U]	-6.7
GACCAAUCUGCCCUCAGAGCUCGGGAACAUCUUCGGAUGCAGAGGUGGCAGGCUUCGGUGGCGCGAUAGCGUCAACGUCCUCAACCUCCAAUGCAUCCCACCACAUGAUGAUGCCUGAAGAGCCUGGCUUUUUUG [A24G A46U C72U U126G G128C]	-4.57
GACCAAUCUGCCCUCAGAGCUCUAGAACAUCUUCGGAUGCAGACGAGGCAGGGUUCGGUGGCGCGAUAGCGCCAACGUCCUCAACCUCCAAUGAAUCCCACCACAGGAUGAUACCUGAAGAGCCUUGGUUUUUUG [G23U G44C C53G C94A U106G G113A]	-7.53
GACCAAUCUGCCCUCAGAGCUCGGGAACAUCUUAGGAUGCAGAGUAGGCAGGCUUCUGUGGCGCGAUAGCGUCAACGUCCUCAACCUCCAAUGCAUCCCACCACAUGAUGAUGCCUGAAGAGCCUUGGUUUUUUG [A24G C34A G45U G57U C72U]	-5.61
GACCAAUCUGCCCUCAGAGCUCGGGAACAUCUUCGGAUGCAGAGGAGGCAGGCUUCGGUGGCGCGAUAGCGCCAACGUCCUCAACCUCCAAUGCAUCCCACCACAUGAUGAUGCCUGAUGAGGCAUGGUUUUUUG [A24G A119U C123G U125A]	0.361
GACCAAUCUGCCCUCAGAGCUCUAGAACAUCUUCGGAUGCAGAGGAGGCAGGCUUCGGUGGCGCGAUAGCGCCAACGUCCUCAACCUCCAAUGCAUCCCACCACAUGAUGAUGCCUGAACAGCCUUGGUUUUUUG [G23U G120C]	-3.8
GACCAAUCUGCCCUCAGAGCUCGGGAACAUCUUCGGAUGCAGAGGAGGUAGGCUUCGGUUGCGCGAUAGCGCCAACGUCCUCAACCUCCAAUGCAUCCCACCACAUGAUGAUGCCUGAAGAGCCUUGGAUUUUUG [A24G C49U G60U U129A]	-3.61
GACCAAUCUGCCCUCAGAGCUCGGGAACAUCUUCGGAUGCAGAGGAGGCAGGCUUCGGUGGAGCGAUAGCGCCCACGUCCUCAACCUCCAAUGCAUCCCACCACAUGAUGAUGCCUGAACAGCCUUGGUUUUUUG [A24G C62A A74C G120C]	-4.13
GACCAAUCUGCCCUCAGAGCUCGGGAACAUCUUCGGGUGCAGAGGAAGCAGGCUUCGGUGGCGCGAUAGCGCCAACGUCCUCAACCUCCAAUGCAUCCCACCACAUGAUGAUGCCUGAACAGCCUUGGUUUUUUG [A24G A37G G47A G120C]	-1.98
GACCAAUCUGCCCUCAGAGCUCUAGAACAUCUUCGGAUGCAGAGGAGGCAGGCUUCGGUGGCGCGAUAGCGCCAACGUCCUCAACCUCCAAUGCAUCCCACCACAUGAUGAUGCCUAAAGAGCCUUGGUUUUUUG [G23U G117A]	-6.33
GACCAAUCUGCCCUCAGAGCUCUAGAACAUCUUCGGAUGCAGAGGAGGCAGGCUUCGGUGGCGCGAUAGCGCCAACGUCCUCAACCUCCAAUGCAUCCCACCACAUGAUGAGGCCUGAAGAGCCUUGGUUUUUUG [G23U U112G]	-5.53
GACCAAUCUGCCCUCAGAGCUCGCGAACAUCUUCGGAUGCAGAGGAGGUAGGCUUCGGUGGCGCGAUAGCGCCAACGUCCUUAACCUCCAAUGCAUCCCACCACAUGAUGAUGCCUGAAGAGCCUUGGUUUUUUG [A24C C49U C82U]	-5.77
GACCAAUCUGCCCUCAGAGCUCGGGAACAUCUUCGGAUGCAGAGGAGGCAGGCUUAGGUUGCGCGAUAGCGCCAACGUCCUCCACCUCCAAUGCAUCCCACCACAUGAUGAUGCCUGAAGAGCCUUGGUUUUUUG [A24G C56A G60U A83C]	-2.27
